Reference: article PMC11286772, “Structural basis of antagonist selectivity in endothelin receptors” (Cell Discovery, 2024)
Where a chain is given by its changes, count along the chain named.

Tests used:
ETA G233^ECL2A = molecular target: T1, ETA G233^ECL2A (Homo sapiens, UniProt P25101, G233A); assay: Size exclusion chromatography analysis of Fab301 binding; conditions: ETA G233^ECL2A mutant vs WT
T1 construct: expressed in transfected cells; host or cells: CHO-K1
T1 sequence (P25101 21-427 G233A): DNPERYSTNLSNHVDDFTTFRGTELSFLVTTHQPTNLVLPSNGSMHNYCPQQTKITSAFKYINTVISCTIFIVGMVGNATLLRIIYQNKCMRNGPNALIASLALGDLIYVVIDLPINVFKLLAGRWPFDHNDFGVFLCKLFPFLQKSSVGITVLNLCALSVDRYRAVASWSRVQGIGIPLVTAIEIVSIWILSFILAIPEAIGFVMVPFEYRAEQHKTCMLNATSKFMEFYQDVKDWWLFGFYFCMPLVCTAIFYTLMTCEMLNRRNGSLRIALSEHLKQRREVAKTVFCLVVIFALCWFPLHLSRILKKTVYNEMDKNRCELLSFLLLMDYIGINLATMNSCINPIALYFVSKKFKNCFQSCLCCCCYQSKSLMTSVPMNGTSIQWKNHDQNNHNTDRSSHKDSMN
Description: (§1) To pinpoint the exact ECL2 residues involved in binding, we performed an extensive alanine scanning mutagenesis. Our size exclusion chromatography analysis identified that the region spanning residues 230^ECL2–235^ECL2 in ETA, and in particularly, residues R232^ECL2 and G233^ECL2, are crucial for Fab301 binding. […] Moreover, the hydrophobic interactions at this interface are crucial for antibody binding, as confirmed by our calcium mobilization assay on Fab301 (Supplementary Fig. S9b). Within this model, E230^ECL2 establishes hydrogen bonds with the CDRL1 and CDRL2 regions of Fab301, whereas Y231^ECL2 and E234^ECL2, together with R232^ECL2, participate in a complex hydrogen bond network within the CDRH3 region of Fab301 (Fig. 6c).

ETA R232^ECL2A = molecular target: T2, ETA R232^ECL2A (Homo sapiens, UniProt P25101, R232A); assay: as above; conditions: ETA R232^ECL2A mutant vs WT
T2 construct: expressed in transfected cells; host or cells: CHO-K1
T2 sequence (P25101 21-427 R232A): T1 sequence (P25101 21-427 G233A) with R212A, A213G
Description: as §1

ETA WT = molecular target: T3, ETA WT (Homo sapiens, UniProt P25101); assay: Calcium mobilization assay, antagonist mode (ET-1 stimulated), CHO-K1 cells; type: cell-based
T3 construct: expressed in transfected cells; host or cells: CHO-K1
T3 sequence (P25101 21-427): T1 sequence (P25101 21-427 G233A) with A213G
Procedure: CHO-K1 cells were cultured in Ham’s F-12K (Kaighn’s) Medium (Gibco-Thermo Fisher Scientific) supplemented with 10% (v/v) fetal bovine serum (FBS; Gibco-Thermo Fisher Scientific), and 100 U/mL Penicillin-Streptomycin (Gibco-Thermo Fisher Scientific) in a humidified incubator at 37 °C with 5% CO2. Cells were seeded in 6-cm dishes overnight; when the density reached 60%–80%, the cells were transferred to F12K Medium supplemented with 10% FBS and transfected with 1.5 μg DNA encoding the ETA WT or mutants or 3 μg DNA encoding the ETB WT or mutants using TransIT2020 (Mirus Biosciences). The next day, transfected cells were harvested from the plate using Versene buffer (Gibco-Thermo Fisher Scientific) and seeded into black-sided, clear-bottomed 384-well plates (Agilent) at a density of 1,5000 cells per well. After 20 h, the 1% dFBS medium was removed, and cells were loaded with 20 μL/well of 1× Calcium 6 dye (Molecular Devices) and incubated at 37 °C for 1 h in the dark. […] All data were analyzed using GraphPad Prism 8 and the data are from at least three independent replicate experiments. All plots are shown as means ± SEM. Data were determined using one-way ANOVA followed by Dunnett’s multiple test compared with WT. The top value was normalized to 100% and the bottom value was normalized to 0% for the final presentation. […]

B1: Fab301: ETA-specific antibody Fab fragment produced from Getagozumab (antibody, V domains shown)
VH: QVTLKESGPTLVKPTQTLTLTCTFSGFSLTTSGLGVAWIRQPPGKALEWLAHIWSDGDTRYYPALKNRLTITKDTSKNQVVLTMTNMDPVDTATYYCAHMKDDSLYFDNWGQGTLVTVSS
VL: EIVLTQSPDFQSVTPKEKVTITCRASQNIGTSIHWYQQKPDQYPKLLIKYASKSISGVPSRFSGSGSGTDFTLTINSLEAEDAATYYCQHSYSFPWTFGQGTKVEIK
B1 was tested, and the “Fab301's binding to ETA” value (ETA G233^ECL2A) was “near-complete loss”, the “Fab301's binding to ETA” value (ETA R232^ECL2A) was “near-complete loss” and the “Effect on ET-1-induced ETA signaling” value (ETA WT) was “antagonistic effects”.
